Measured values: patent US20050031628A1

Assays:
[1] = molecular target: antigen binding receptors on maturing human monocyte-derived dendritic cells; assay: flow cytometry, maturing dendritic cells loaded with 10 µg/ml HBV S1/S2
[2] = molecular target: antigen binding receptors on maturing human monocyte-derived dendritic cells; assay: flow cytometry, 90 µg/mL, 1 h at 4 C, dendritic cells of day 1 of culture, F(ab')2 goat anti-mouse Alexa-488
[3] = molecular target: antigen binding receptors on maturing human monocyte-derived dendritic cells; assay: flow cytometry, 90 µg/mL, 1 h at 4 C, dendritic cells of day 2 of culture, F(ab')2 goat anti-mouse Alexa-488
[4] = molecular target: antigen binding receptors on maturing human monocyte-derived dendritic cells; assay: flow cytometry, 90 µg/mL, 1 h at 4 C, dendritic cells of day 3 of culture, F(ab')2 goat anti-mouse Alexa-488
[5] = molecular target: antigen binding receptors on maturing human monocyte-derived dendritic cells; assay: flow cytometry, 90 µg/mL, 1 h at 4 C, dendritic cells of day 4 of culture, F(ab')2 goat anti-mouse Alexa-488

Question: What does the source list for HBV S1/S2 expressed in E. coli?
Answer: % Specific positive cells [1]: 12.2%; Relative MFI [1]: 3.9

Question: Which % Specific positive cells [1] does the source give for “HBV S1/S2 expressed in High Five insect cells (baculovirus)” here?
Answer: 69.9%

Question: And the Relative MFI [1]?
Answer: 40.3

Question: Which results are given for murine IgG2a (G155-178) (antibody)?
Answer: % Specific positive dendritic cells [2]: 28%; % Specific positive dendritic cells [3]: 17.4%; % Specific positive dendritic cells [4]: 14.3%; % Specific positive dendritic cells [5]: 13.5%
